Experimental findings from publication PMC9832874 are described below.

The assay has as its target T1, Human C-reactive protein, pentameric (pCRP) (human), P02741.
T1 chain: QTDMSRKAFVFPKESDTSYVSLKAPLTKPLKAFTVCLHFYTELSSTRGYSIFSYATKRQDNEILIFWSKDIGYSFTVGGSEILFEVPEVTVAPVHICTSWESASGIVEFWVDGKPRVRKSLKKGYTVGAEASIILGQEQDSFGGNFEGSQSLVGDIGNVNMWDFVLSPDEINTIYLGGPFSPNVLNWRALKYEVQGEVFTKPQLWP
The experiment in a line: crystal structure; pCRP at 8 mg/ml in 20 mM Tris, 140 mM NaCl, 2 mM CaCl2, co-crystallised with C10M (1:3 molar ratio pCRP:C10M); hanging drop at 20°C; well buffer 100 mM Tris pH 9, 10% PEG 4000, 50 mM LiCl, 200 mM MgCl2; oligomer seen: pentamer. The conditions noted are these: remark: other sources report otherwise.

B1: Human C-reactive protein, pentameric (pCRP), P02741 19-224 (natural protein)
chain: QTDMSRKAFVFPKESDTSYVSLKAPLTKPLKAFTVCLHFYTELSSTRGYSIFSYATKRQDNEILIFWSKDIGYSFTVGGSEILFEVPEVTVAPVHICTSWESASGIVEFWVDGKPRVRKSLKKGYTVGAEASIILGQEQDSFGGNFEGSQSLVGDIGNVNMWDFVLSPDEINTIYLGGPFSPNVLNWRALKYEVQGEVFTKPQLWP
Take B1: the stoichiometry N was 5.
